In article PMC7059403 (Journal of the American Chemical Society, 2020):

Assays:
[1] = target: T1, LyxD (H16_B0217), L-lyxonate dehydratase (Cupriavidus necator, UniProt Q0K4Q6); experiment: in vitro activity assay; format: biochemical
T1 sequence (Q0K4Q6 1-391): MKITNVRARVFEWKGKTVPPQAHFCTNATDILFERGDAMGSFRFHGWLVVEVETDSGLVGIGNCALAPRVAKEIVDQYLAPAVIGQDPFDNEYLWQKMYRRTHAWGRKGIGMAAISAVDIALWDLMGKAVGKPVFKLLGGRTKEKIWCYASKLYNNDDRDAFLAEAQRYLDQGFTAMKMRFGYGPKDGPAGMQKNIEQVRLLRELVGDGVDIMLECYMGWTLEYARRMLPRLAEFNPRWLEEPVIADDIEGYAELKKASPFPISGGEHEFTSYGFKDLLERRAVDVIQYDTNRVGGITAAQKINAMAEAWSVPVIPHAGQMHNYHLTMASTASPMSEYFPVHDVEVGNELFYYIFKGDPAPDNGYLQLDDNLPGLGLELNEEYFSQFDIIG

[2] = target: T2, ClxD (H16_B0216), Clx decarboxylase (Cupriavidus necator, UniProt Q0K4Q7); experiment: in vitro decarboxylation assay; format: biochemical; settings: with 2-carboxy-L-lyxonate; catalytic NAD+, regenerated in the reaction
T2 sequence (Q0K4Q7 1-338): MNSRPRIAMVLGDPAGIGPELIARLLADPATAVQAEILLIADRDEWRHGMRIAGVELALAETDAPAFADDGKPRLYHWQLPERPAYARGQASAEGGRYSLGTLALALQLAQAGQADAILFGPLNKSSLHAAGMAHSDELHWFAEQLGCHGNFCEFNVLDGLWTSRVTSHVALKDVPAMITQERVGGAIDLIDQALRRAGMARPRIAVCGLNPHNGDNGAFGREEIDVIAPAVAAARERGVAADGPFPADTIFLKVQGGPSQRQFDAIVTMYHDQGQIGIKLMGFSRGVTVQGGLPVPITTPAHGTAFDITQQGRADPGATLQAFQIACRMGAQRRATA

[3] = target: T3, KgsD (H16_B0212), Kgs dehydrogenase (Cupriavidus necator, UniProt Q0K4R1); experiment: in vitro activity assay; format: biochemical
T3 sequence (Q0K4R1 1-527): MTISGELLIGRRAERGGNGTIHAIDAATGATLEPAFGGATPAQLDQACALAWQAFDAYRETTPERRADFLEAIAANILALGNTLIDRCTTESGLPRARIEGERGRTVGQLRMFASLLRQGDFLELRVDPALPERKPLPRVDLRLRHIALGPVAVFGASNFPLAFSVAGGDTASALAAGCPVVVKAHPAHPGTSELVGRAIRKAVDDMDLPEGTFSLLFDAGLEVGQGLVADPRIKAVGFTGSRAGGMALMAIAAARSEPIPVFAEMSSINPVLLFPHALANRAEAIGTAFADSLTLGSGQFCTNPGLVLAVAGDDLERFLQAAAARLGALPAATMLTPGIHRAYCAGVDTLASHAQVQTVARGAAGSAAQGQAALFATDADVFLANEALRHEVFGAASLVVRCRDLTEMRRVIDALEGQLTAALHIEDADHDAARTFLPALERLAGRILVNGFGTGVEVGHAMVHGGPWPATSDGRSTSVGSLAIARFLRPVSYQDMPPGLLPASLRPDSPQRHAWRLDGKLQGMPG

KdlD, Kdl dehydratase = target: T4, KdlD, Kdl dehydratase (Cupriavidus necator, UniProt Q0K4R0); experiment: in vitro activity assay; format: biochemical
T4 sequence (Q0K4R0 1-310): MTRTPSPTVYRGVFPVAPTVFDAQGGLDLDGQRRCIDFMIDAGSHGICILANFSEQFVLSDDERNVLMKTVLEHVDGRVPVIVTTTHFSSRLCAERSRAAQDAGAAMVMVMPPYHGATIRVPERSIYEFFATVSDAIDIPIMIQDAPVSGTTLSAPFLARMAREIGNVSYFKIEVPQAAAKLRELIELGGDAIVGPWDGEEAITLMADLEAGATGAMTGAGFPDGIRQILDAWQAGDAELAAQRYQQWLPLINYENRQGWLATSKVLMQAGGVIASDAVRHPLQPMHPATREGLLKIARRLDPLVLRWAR

in vitro enzyme kinetics [4] = substrate: O=C1O[C@H]([C@@H](O)CO)C(=O)C1=O; experiment: in vitro enzyme kinetics; format: biochemical, Cupriavidus necator
in vitro enzyme kinetics [5] = substrate: O=C(O)C(O)(C(=O)O)[C@H](O)[C@@H](O)CO; experiment: in vitro enzyme kinetics; format: biochemical, Cupriavidus necator; settings: NAD+ as catalytic cofactor
in vitro enzyme kinetics [6] = substrate: O=C(O)C(=O)C(=O)[C@H](O)[C@@H](O)CO; experiment: in vitro enzyme kinetics; format: biochemical, Cupriavidus necator

With O=C(O)[C@H](O)[C@H](O)[C@@H](O)CO [L-lyxonate] the “in vitro activity assay (dehydration)” value [1] was “heterologously expressed and display the predicted in vitro activities”.

With NC(=O)c1ccc[n+]([C@@H]2O[C@H](COP(=O)(O)OP(=O)(O)OC[C@H]3O[C@@H](n4cnc5c(N)ncnc54)[C@H](O)[C@@H]3O)[C@@H](O)[C@H]2O)c1 [NAD^+] the “in vitro decarboxylation assay; stopped-flow absorbance at 340 nm” value [2] was “generates L-lyxonate (Figure 1C), even with sub-stoichiometric amounts of NAD^+”.

For O=CCCC(=O)C(=O)O [α-ketoglutarate semialdehyde], the “in vitro activity assay (oxidation)” value [3] was “heterologously expressed and display the predicted in vitro activities”.

For O=C(O)C(=O)C[C@@H](O)CO [2-keto-3-deoxy-L-lyxonate], the “in vitro activity assay (dehydration)” value (KdlD, Kdl dehydratase) was “heterologously expressed and display the predicted in vitro activities”.

B1: DhaL (H16_A3012), DHA lactonase (Cupriavidus necator H16) (protein)
chain: MDTVRIFDERARELPLAGERLEQLACRATWSEGPVWLPDEDAVLWSDIPNDRILRWSAADGMSVWRTGAGFTNGHALEADGSLLHCSHGKRAIVRTHRSGARLGEDELVVSHYQGRRLNSPNDIVVKRDGTLWFTDPPYGILSDREGHRADPELRHNYVFRYDPAVGALEVASDLIEEPNGLAFSPDEDVLYVSDTSAALRDDGHHHIVAFDVVAGRVLANPRVFAVIAPGLPDGFRVDRRGWLFTSSASGVQVFHPDGTRLAHIPVPEKVGNLVFGGAEGDALFIAASTSLYRLRLGQRLT
For B1, the Km (in vitro enzyme kinetics [4]) was 490 ± 70 µM and the kcat (in vitro enzyme kinetics [4]) was 8.0 ± 0.6 s−^1.

B2: ClxD (H16_B0216), Clx decarboxylase (Cupriavidus necator H16) (protein)
chain: MNSRPRIAMVLGDPAGIGPELIARLLADPATAVQAEILLIADRDEWRHGMRIAGVELALAETDAPAFADDGKPRLYHWQLPERPAYARGQASAEGGRYSLGTLALALQLAQAGQADAILFGPLNKSSLHAAGMAHSDELHWFAEQLGCHGNFCEFNVLDGLWTSRVTSHVALKDVPAMITQERVGGAIDLIDQALRRAGMARPRIAVCGLNPHNGDNGAFGREEIDVIAPAVAAARERGVAADGPFPADTIFLKVQGGPSQRQFDAIVTMYHDQGQIGIKLMGFSRGVTVQGGLPVPITTPAHGTAFDITQQGRADPGATLQAFQIACRMGAQRRATA
B2 showed a Km (in vitro enzyme kinetics [5]) of 800 ± 400 µM and a kcat (in vitro enzyme kinetics [5]) of 0.33 ± 0.08 s−^1.

B3: DkgM (H16_B1217), DKG mutase (Cupriavidus necator H16) (protein)
chain: MESQWTAVLVEKFGHSFSAYELDGGERRFSVQLPDYPHEFVVDRERLCGYVGHYGVQTFAHAGDGGAAVIAVDLMRGAVRARLDCSPYHRIHGLQIDRQGRVYALSERDNMLVVFEAPLEHPVPDRAVPAGGVKSHLFVLSADGERAYVTNLLSHTVTLVHPYDATRAPRAAYAGRRPEGCCLSRDEAALYVASRDDHSLTRLDARTMEAVRTVPTGEDPTRIYWSPDDRLFVLNYGERSIRVFDPDTLAETGRVDTGARPIALAFHPADPSRAYIALNDHTVGQLDLPGLALRHAFTTGKEPDGLAILALPTR
In the case of B3, the Km (in vitro enzyme kinetics [6]) is reported as 81 ± 7 µM and the kcat (in vitro enzyme kinetics [6]) is reported as 0.6 ± 0.1 s−^1.
